Results reported in US20170052176A1.

How the values were obtained:
[1] = target: CD8 on human CD8+ cells (PBMC) (human); assay: capture of PBMC pre-incubated with 1.5 ug anti-CD8 Fab-TST / multimerized soluble Strep-Tactin on Biotin-agarose; flow cytometry with CD8-PE and CD3-APC
[2] = target: CD8 on human CD8+ cells (PBMC) (human); assay: capture of unlabelled PBMC on a pipette tip of Strep-Tactin-agarose loaded with 1.5 ug anti-CD8 Fab-TST; flow cytometry with CD8-PE and CD3-APC; 7,6% before selection [continued]
[3] = target: CD8 on human CD8+ cells (PBMC) (human); assay: capture of PBMC pre-incubated with 1.5 ug anti-CD8 Fab-TST / multimerized soluble Strep-Tactin on Biotin-agarose, elution with D-biotin; flow cytometry with CD8-PE and CD3-APC [continued]
[4] = target: CD8 on human CD8+ cells (PBMC) (human); assay: capture of unlabelled PBMC on a pipette tip of Strep-Tactin-agarose loaded with 1.5 ug anti-CD8 Fab-TST, elution with D-biotin; flow cytometry with CD8-PE and CD3-APC; 7,6% before selection [continued]

Chain of CD8 on human CD8+ cells (PBMC) (human) (P01732 22-235): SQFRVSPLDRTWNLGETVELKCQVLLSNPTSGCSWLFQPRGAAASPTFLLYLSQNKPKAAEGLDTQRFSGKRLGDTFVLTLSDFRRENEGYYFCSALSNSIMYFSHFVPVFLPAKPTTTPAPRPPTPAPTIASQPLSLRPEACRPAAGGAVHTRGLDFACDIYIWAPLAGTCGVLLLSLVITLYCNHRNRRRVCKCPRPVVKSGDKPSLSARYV

Q1-UL, % CD8 PE-positive cells in the wash through fraction [1]: 0.9%
Q1-UL, % CD8 PE-positive cells in the wash through fraction [2]: 2.4%
Q1-UL, % CD8 PE-positive cells in the positive (biotin-eluted) fraction [3]: 72.4%
Q1-UL, % CD8 PE-positive cells in the positive (biotin-eluted) fraction [4]: 58.7%
Substance: anti-CD8 Fab-fragment carrying the Twin-Strep-Tag at the C-terminus of the heavy chain (catalogue number 6-8003, IBA GmbH)
